Experimental data from PMC6956557, “Preclinical development of a novel CD47 nanobody with less toxicity and enhanced anti-cancer therapeutic potential” (Journal of Nanobiotechnology, 2020).

How the values were obtained:
hCD47 (ECD)-Fc = target: T1, hCD47 (ECD)-Fc (Homo sapiens, UniProt Q08722); assay: ELISA; 5 μg/mL CD47 (ECD)-Fc proteins coated overnight at 4 °C, 1% BSA block, 10 μg/mL Nb for 1 h at room temperature; mouse anti-HA and anti-mouse IgG-alkaline phosphatase, A405; settings: both partners purified
T1 construct: human CD47 ectodomain (ECD), residues 20-136; Cloned into a pFUSE vector; also called human CD47 (ECD)-Fc; recombinant hCD47 antigen
T1 sequence (Q08722 20-136): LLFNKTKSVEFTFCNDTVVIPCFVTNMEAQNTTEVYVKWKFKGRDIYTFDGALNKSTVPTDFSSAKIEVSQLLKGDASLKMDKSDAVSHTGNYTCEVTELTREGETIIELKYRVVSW

mouse CD47 (ECD)-Fc = target: T2, mouse CD47 (ECD)-Fc (Mus musculus, UniProt Q61735); assay: as above; settings: both partners purified
T2 construct: mouse CD47 ectodomain (ECD); source: HEK-293F, purified

rat CD47 (ECD)-Fc = target: T3, rat CD47 (ECD)-Fc (Rattus norvegicus, UniProt P97829); assay: as above; settings: both partners purified
T3 construct: rat CD47 ectodomain (ECD); source: HEK-293F, purified

[1] = target: T4, human CD47 on the surface of cells (human (endogenous in Raji), UniProt Q08722); assay: flow cytometry on cells; competition: Raji cells co-incubated with HuNb1-biotin or Rituximab-biotin and unlabelled antibody; streptavidin-PE; settings: one partner purified
T4 construct: human CD47 (integrin-associated protein) on the cell surface; also called hCD47; CD47 expressed on Raji cells; source: endogenous, on Raji cells; endogenous, on human RBCs of healthy donors
T4 sequence (Q08722 19-323): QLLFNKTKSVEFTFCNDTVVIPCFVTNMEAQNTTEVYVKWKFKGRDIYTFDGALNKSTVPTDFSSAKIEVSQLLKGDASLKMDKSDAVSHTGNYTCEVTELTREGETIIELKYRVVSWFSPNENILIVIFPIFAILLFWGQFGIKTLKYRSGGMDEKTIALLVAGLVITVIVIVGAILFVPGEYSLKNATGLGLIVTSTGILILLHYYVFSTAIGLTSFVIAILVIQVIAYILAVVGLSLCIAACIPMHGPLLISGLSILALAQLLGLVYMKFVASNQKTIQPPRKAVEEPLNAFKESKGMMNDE

binding result (hCD47 (ECD)-Fc)	binding result (mouse CD47 (ECD)-Fc)	binding result (rat CD47 (ECD)-Fc)	binding result [1]	Binder
binds	no binding (tested: 10 μg/mL)	no binding (tested: 10 μg/mL)	–	HuNb1 (VHH, as the VHH of m1; The nanobody alone as used in the ELISA, detected by an anti-HA antibody; also called CD47 Nb; source: E. coli WK6 (pMECS), purified (Ni-sepharose)) VHH: QVQLQESGGGLVQPGGSLRLSCAASGYAYTSDCMGWFRQTPGKGLEGVALIYTPGNSTNYADSVKGRFTISQDNSKSTVYLQMNSLRAEDTAMYYCAARRGACSLRLPFFYWGQGTLVTVSS
–	–	–	binds	HuNb1-biotin (VHH, as the VHH of m1) VHH: QVQLQESGGGLVQPGGSLRLSCAASGYAYTSDCMGWFRQTPGKGLEGVALIYTPGNSTNYADSVKGRFTISQDNSKSTVYLQMNSLRAEDTAMYYCAARRGACSLRLPFFYWGQGTLVTVSS
